Test results from the DeepSol protein solubility set.

Assay: soluble on expression in E. coli; label from the status in PepcDB or PDB records

Which “soluble on expression in E. coli” value does the source give for “MLQIEKIVSNKGNDLSLRWNLLKKIDHFQCLTSLTRLNLNDNQIEKLENLETLVNLVFLDVSYNRITKIEGLSELINLEELHLVHNKIITIEGLETNTAMKYLEFGDNRIQKMENLSHLVNLERLFLGANQIRKIEGLDGMAQLKELSLPGNALQIIEGLDTLSGLKSISLAQNGIRKIDGLSGLTNLKSLDLNDNIIEKLENVEQFKGISSLMIRKNKLNCWQDVRQLKKLENLTVLTMEMNPLYSSDYTYRNRVKEILPDVKLLDGFPIFWVQGDPYQPIPEEFYEMGDVYVTSPTFVGHDTGSILAIDCHPSGKKFITCGQKARTSNGLVVVWNAEPVLDKKKASNENVPKLLFQVESQSQSNSCRWSPDGKRFAFGSDDSSVSVWEYVGLINSMGSITGGAQNVERYKECCVLRGHSMEVLTVEWSPNGKYLASGSIDYRIIIYNARKLPDRITVLNDIQLPVKGLSWDPIGKYLASLEGDKKLRFWATDSWQCVKSVTEPFESNIEETMLTRLDWSPDGKYLMTPAAVRSGKPLIKLIQRQTWKSDQFLAGHHKGTTCVRAMPRLIEANLKNGKRMQLTCAAVGSRDKSISIWVFPGTLKPLFVINNIFNHTVMDFAWCGRNLLACSQDGTVKVIHLSESVIGEMISNEAMSDLCYQIYSIRPPRYELTDKEEDESQDSFNLSDLSSSANNASFVTCPEDVLIKRKKLVAAQQSSDIQLTKSMEDNSKENESKNSEKTMMEERNKQIDVRKDGKRRIQPVFCGTTTADPMTSLSSEGKKTVAPPPAKRKALAPAVPAKKGEVDLEDSSDSDDDDEEEEEDMEISDIESVRNKKRKVPATTSQPMLALDLKKPALRPMEPKSLKTQEGTVLMEAPEQQPKLSQHVVDRKGMFVEIDNRWKHGGVETTQIKLIKKKQQTAENEDDMMDGERRVNHECLWMAVLGSPVIIVAANKHNVVLGCGDKCLRVYRTFCGTHIVSLRLDSLPVLIGVTEHAAYALTENGRLSTWNLKLGKAVVTRQPLFDCVEASTDNSLISADVSETGVPLIVFSNGSIFTFNVSLSCWIQAITTNVLGRLTSPISDAQLSCSNGTTNSAGPLVRLLKRMRKQATAPGVAPQVVKAVKESQLEQLLHCAEQLGNPQDYQTMLMLYVETLCEGGSEKKLKNILNDLSRSGAPMQVCGLRRSALYDDVTRMIKLKQPAIAARIVAGVAASTTTKSLF” here?
Its value is “not soluble”.

For “MLQSGEWAYTEKLKEHFESPKNVLQGNDTSAFDGVGMEGNLQCGDQMMVAIKVDKESEKITDCQWKTYGCASAIASTSILSEMVKGMTLDQAFNISPKEVAKELGGLPENKIHCSVLGDKALRAAINDYFIRNGMSDRVQKVQARTVCQCMNVTDHDIEEAVLEGARTFYELQEHTKISTVCGQCREDAENELQKYIHLHFGS”, which “soluble on expression in E. coli” value is on record?
Its value is “soluble”.

With “MLRDKSVNLDDGDPFTIALFGVDSNAERNANGGGQRSDTIMVLSVNPEKKTTEIVSIPRDTQADIVGKGTTEKINHAYAYGGPDMAVKSLEKLLNVPIDHYATIDMDGMQDMIDTVGGITVTSNATFSYDGYQFTEGERSKMDGKEAMAFIRSRKEDGAGGDFGRQERQQLVIQGLANKLTSVSSITHFNSLMNHVEDNVKTDLSVGELNKVRSNYKDANDNVNRHQLEGQGGIQDDGLYYFVPSENSLNEIETNVKDNLGILEHHHHHH” as the sequence, how does the “soluble on expression in E. coli” value read?
Its value is “soluble”.

With “MLRIVLARSSRAMSSASPASASDSDTSVRKIGKALETYLKHSQQHVAMMEKHRAEFETGRRHLAKMMSLDIHELDQEAIDRAILYLFPSGLTDPNARPVMRPPDEILPKFQRFTFDEEGKPEGSRFFTLSPKIYGLLSDIGVKTHSVMKFYDEHVGSRSVNRSDLEPANLSGSQWVTADKLKKKLSEKFSKELYGQVIIAFEHLASLPGSAIEQKFLMEFREPMTASTGSKLFGPAIPEVHVCAVTNRRYAEVTTRCKDTRATVKVTDAGKGKFDIDGLQLHDFRHLQAREILLAPMIVSQSLGRFDVTATTSCISNTLPEAPNKAPLMRSGGMSALPRAVRHGTALCVAALQPEAIEPLRLSGLLTLDPRKNERSKVNQPGARAKWIWKRR” as the sequence, how does the “soluble on expression in E. coli” value read?
Its value is “not soluble”.

With “MLRRDFLKLLAAATTIAATGPVMAACSRDDNSATSGKAATDTIRIAAIGGPGEGLNINEAMSTATWAAMYAVYESLVIAGDSAPAFQLAKSVEPNKDATMWTVTLRDAPLFSDGSPVTAADVVASLKVVAKNPMRGMTYADVDVDKLKAIDDSTVEIHLTRPRADFVDAVLGVNSLVYKNGDPGTTIGSGPYVVESGDSGQGWKLAANEHFPTDRRISQSLEIQVIADADARLRAVDSGAVDLAMDLPATAARSLKNAQAWIPGPADSKALLFVLNTAVAPFNDAEVRRAVKISLDRKAMVDVALDGAGTVGADIPGFGFKDYPEGISEVRRDLDAARQIFKDKGIKELTLVTADFTPGMNDGADIAAKQLADAGVKVTVEKRDPTTYFADMAALRALPFFASYIVNRSLQSALPFMTGSHAMFNLSGFGTSGDWDKRLAAAQAETNDSQRAALLKKLAVEMQRDGGDVLWGYANEVHGRADGIPDVPVSQSVPVPTTK” as the sequence, how does the “soluble on expression in E. coli” value read?
Its value is “not soluble”.

Which “soluble on expression in E. coli” value does the source give for “MLRRGLSRPEPRLLSKRYLSSATGGGSAGTTEGGSSETTPLRPRPNALTDEIIRVDHAGELGADRIYAGQMAILGNGPLGKTIGHMWEQEKEHRKQFEQLIQQHRVRPTIMTPIWNVAGFVLGAGTALMGEKAAMACTVAVETVIVEHYNDQLRQIMEAPNPDKELLATITKFRDEEQEHHDTGIDHGAEQAPFYQAMTEVIKFGCKTAIAISKKILEHHHHHH” here?
Its value is “not soluble”.

For “MLRRQMSFNGKSDMGILYLVPTPIGNLEDMTFRAIDTLKSVDAIAAEDTRQTKKLCHVYEIETPLVSYHEHNKESSGHKIIEWLKSGKNIALVSDAGLPTISDPGAEIVKDFTDIGGYVVPLPGANAALTALIASGIVPQPFFFYGFLNRQKKEKKKELEALKKRQETIIFYEAPHRLKETLSAMAEILGDREIAVTRELTKKYEEFIRGTISEVIGWANEDQIRGEFCLVVEGSNNEEVDEEEQWWETLTAKEHVEHYISKGATSKEAIKKAAVDRNVPKREVYDAYHIKQ”, which “soluble on expression in E. coli” value is on record?
Its value is “soluble”.

For “MLRSIICNMCNLSDESKQFEMTPPSSNLSSLFPTGRAVRNPFGKVYFVVILKGKAMVRIDGKSMLLLERTFLFLPPGHLLLRLSCTQDFLFQYLSFSFDFLSDFPLLLKADISNQVTNAPCLPMSPEDFSLIKMYYHFIYHRYLDAECPSEVIKGMLFSLVLEVCRMYSGRNISVEMSRQDKLVDGFFSLLHKYCTQERMAAFYASRLCISDKYLMRSIKKQTGQTFHYWMADFILREAKLMLRSTDLSVTEIADKLSFPNSSSFARFFRKYTGFSPVQFRNEA”, which “soluble on expression in E. coli” value is on record?
Its value is “not soluble”.

Which “soluble on expression in E. coli” value does the source give for “MLRTAGRDGLCRLSTYLEELEAVELKKFKLYLGTATELGEGKIPWGSMEKAGPLEMAQLLITHFGPEEAWRLALSTFERINRKDLWERGQREDLVRDTPPGGPSSLGNQSTCLLEVSLVTPRKDPQETYRDYVRRKFRLMEDRNARLGECVNLSHRYTRLLLVKEHSNPMQVQQQLLDTGRGHARTVGHQASPIKIETLFEPDEERPEPPRTVVMQGAAGIGKSMLAHKVMLDWADGKLFQGRFDYLFYINCREMNQSATECSMQDLIFSCWPEPSAPLQELIRVPERLLFIIDGFDELKPSFHDPQGPWCLCWEEKRPTELLLNSLIRKKLLPELSLLITTRPTALEKLHRLLEHPRHVEILGFSEAERKEYFYKYFHNAEQAGQVFNYVRDNEPLFTMCFVPLVCWVVCTCLQQQLEGGGLLRQTSRTTTAVYMLYLLSLMQPKPGAPRLQPPPNQRGLCSLAADGLWNQKILFEEQDLRKHGLDGEDVSAFLNMNIFQKDINCERYYSFIHLSFQEFFAAMYYILDEGEGGAGPDQDVTRLLTEYAFSERSFLALTSRFLFGLLNEETRSHLEKSLCWKVSPHIKMDLLQWIQSKAQSDGSTLQQGSLEFFSCLYEIQEEEFIQQALSHFQVIVVSNIASKMEHMVSSFCLKRCRSAQVLHLYGATYSADGEDRARCSAGAHTLLVQLPERTVLLDAYSEHLAAALCTNPNLIELSLYRNALGSRGVKLLCQGLRHPNCKLQNLRLKRCRISSSACEDLSAALIANKNLTRMDLSGNGVGFPGMMLLCEGLRHPQCRLQMIQLRKCQLESGACQEMASVLGTNPHLVELDLTGNALEDLGLRLLCQGLRHPVCRLRTLWLKICRLTAAACDELASTLSVNQSLRELDLSLNELGDLGVLLLCEGLRHPTCKLQTLRLGICRLGSAACEGLSVVLQANHNLRELDLSFNDLGDWGLWLLAEGLQHPACRLQKLWLDSCGLTAKACENLYFTLGINQTLTDLYLTNNALGDTGVRLLCKRLSHPGCKLRVLWLFGMDLNKMTHSRLAALRVTKPYLDIGC” here?
The value was “soluble”.

With “MLRTICKQHTALPDKSIRKLEKIAEGLTVLSKLLKADIFIDCPTGINDAAIVVAEANPETGSSYTQSVVGQYAYRKNEPAVLRTLETGLPSRDYKALTQENTLVRQNVVPIKNEKEEVIGVLIVEEGSNDTGLNKELNFLHDATNELLRSSMEMTKEQKIIDYINDGIIIFNEKGILIYANSKAKNIYKKIGYKHNILGTKFSNIVLNNIAFKDVLDGIIPGSSDIHIAKMDLNIHYYLIKESKNVKNVVLFIKDLTEIKEKEKELILKSVAIKEIHHRVKNNLQTIASLLRIQARKTEDEAVRQAFNESINRILSIAVTHEILAQNGLDDLKIKEMFSKILKNSIRASIGENLDLKTSISGDDFKINSDKSTSIALIANELVQNSITHGFKGMTSGKIDITVKQGKIKSKVTIADNGVGFKSKDFKNESLGLQIVKSLVKEKLFGTIDIKSTKNGTIIVFDFEN” as the sequence, how does the “soluble on expression in E. coli” value read?
Its value is “not soluble”.

For “MLSALLIRNIRNASKLASVAGPNSDRIVNVKWSDGKTGVFPLIWLRDTSPDPSTYTISPAMTARKLTMLEFDVEQNARKLWIDEDANCLKIEWESGVLSEFPSEWLKIRNPSDQEARRRRRKVYLFPEQTWGKAEIEGKLKKFSHEEFMKNEQVVHDFLQAVCIDGIAVLKGAPQGVRGAVEAIGDRIGMIKRTHFGLVFEVSLKADASNMAYASNGGLPFHTDFPSLSHPPQLQMLHMLQSAEEGGHSLFVDGFHVAEQLRVEKPEIFKILTTQSMEYIEEGYDVHEINGKTIRFDYDMCARHKVIRLNDDGKVNKIQFGNAMRSWFYDCEPSKVQDVYRAMKTFTEYCYQPRNMLKFRLEDGDTVLWANQRLLHTRDGFRNAPEKARTLTGCYFDWDIVKSRVRFLRDKLSLEQNQPSA”, which “soluble on expression in E. coli” value is on record?
The value was “not soluble”.

With “MLSETELRALKKLSTTTSRVVGDSTLALPSNVKLSKGEVEKIAVTKKEMFDELAQCNLPTIELITREHTFNGDVIRFAAWLFLMNGQKLMIANNVAVRMGMQYATNLAGNNVKITYVTSNNVVKLGHIAAGVLANPYSNKGSGLFITYEHNLISNQIETGKVCVLFITSLSTTASSTNSFAYSACSVPIEDWDFNMIKLTAETSCASLTAMTNLVNSLVPGERTRPVGLYVDIPGVTVTTSASSGSLPLTTIPAVTPLIFSAYTKQVEEVGVINTLYALSYLP” as the sequence, how does the “soluble on expression in E. coli” value read?
The value was “soluble”.

Which “soluble on expression in E. coli” value does the source give for “MLSKIELMLLRSLETGKTYTPEEAAELSGLSKDAVLKAAYMLQERGYVRVIENVRTHYSLTEEGERYLKEGLPEEKLYSLVKSGVNSMDELRKRMGREFQIALGWLRRKGAVEVEGDKVVPKREPSFDERA” here?
The value was “soluble”.

For “MLSKPMELLRPSKGMINVHPIQRGGILTEEARKVLLEWGDGYSMCDICLEGRVDLLDKPPVKRFKEEVAEFLGMDEVRFTAGARHAKFVAMSGFKGALVVDSLAHYTTYIAAELNGLRVYEVPNTGYPEFRIEAESYTDVFEKVKEETGDYPAVALLTHADYKYGNLADAKKVAEICRDYGIPLILNTAYTSGIMEVSGRETGCDFIVASGHKSWAATAPIGILATTFEFAERVFRVSEVRGNWSGRAFTKKEVALFGCSPVYGLPLVTLMASFPVVKERVKRWKEEVEKARWFVEEMEKIEGVMLLGERPKNHTLMNFETPSFNLIAKKHRRKGYFLYHELKERGIFGVQPGMTRNVKLNVYGLSWEEVERVAEAFKEIAEKYGLEVED”, which “soluble on expression in E. coli” value is on record?
The value was “not soluble”.

For “MLSLATFFITMTTHRKPSQEQGFLNGQFLLAMPGMSDERFARSVVYICAHSDEGAMGFIINQLQPVQFPDLLRQIGVIGEEDLIILPDRAQHMVVRNGGPVDRTRGFVLHSDDYMVDSTMPVSDDVCLTATVDILRAIYGGGGPERALMALGYSGWAPGQLEMEVAENGWLTCDAPLDMLFDSDIEGKYSRLMLHMGIDMSRLVSDAGHAAADPLEHHHHHH”, which “soluble on expression in E. coli” value is on record?
The value was “not soluble”.
